The values below come from patent US20210324028A1 (Pfizer, published 2021).

For assay [1], the target named is T1, human IL-15Rα (human, UniProt Q13261 31-205, limits assumed).
T1 construct: also called hIL-15Rα; IL-15 receptor alpha
Briefly: SPR 37C, fusion captured by anti-human Fc. The essentials:
(§1)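 Anti-PD-1–hIL-15 fusions captured at 10 μg/mL on an anti-human Fc surface, receptor injected at 37 °C in HEPES-buffered saline with 0.05% Tween-20 and 1 mg/mL BSA, pH 7.4; 5 min dissociation.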

For assay [2], the target named is T2, mouse PD-1 on doxycycline-induced 32D[pRF770+pRF791] cells (mouse, UniProt Q02242 25-288).
T2 sequence (looked up): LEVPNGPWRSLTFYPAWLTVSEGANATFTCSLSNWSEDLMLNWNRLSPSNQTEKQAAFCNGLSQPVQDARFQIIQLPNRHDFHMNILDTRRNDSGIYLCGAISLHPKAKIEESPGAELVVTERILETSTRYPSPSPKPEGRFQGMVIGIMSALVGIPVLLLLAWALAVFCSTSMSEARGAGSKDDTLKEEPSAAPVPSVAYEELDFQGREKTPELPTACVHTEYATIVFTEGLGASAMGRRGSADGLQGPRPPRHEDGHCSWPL
Briefly: cell-based or functional assay.

The target in assay [3] is T3, IL-15 signaling receptor on 32D[pRF770+pRF791] cells (human CD122 plus mouse CD132) (human; mouse, UniProt P14784 27-551; P34902 23-369).
T3 sequence (looked up) 1: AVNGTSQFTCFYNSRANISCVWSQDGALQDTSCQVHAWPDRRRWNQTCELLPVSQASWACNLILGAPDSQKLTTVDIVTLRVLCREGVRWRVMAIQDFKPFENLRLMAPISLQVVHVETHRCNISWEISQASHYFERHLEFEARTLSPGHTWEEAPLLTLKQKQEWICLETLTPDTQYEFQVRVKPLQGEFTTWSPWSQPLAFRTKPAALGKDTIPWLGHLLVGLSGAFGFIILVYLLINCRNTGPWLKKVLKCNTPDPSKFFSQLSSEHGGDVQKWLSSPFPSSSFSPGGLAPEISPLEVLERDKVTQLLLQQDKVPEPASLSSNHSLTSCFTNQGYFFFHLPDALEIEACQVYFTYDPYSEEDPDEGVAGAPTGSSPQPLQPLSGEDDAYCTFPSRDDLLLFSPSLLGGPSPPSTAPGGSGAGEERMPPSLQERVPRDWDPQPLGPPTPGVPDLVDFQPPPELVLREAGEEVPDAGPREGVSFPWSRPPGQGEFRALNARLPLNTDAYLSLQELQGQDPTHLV
T3 sequence (looked up) 2: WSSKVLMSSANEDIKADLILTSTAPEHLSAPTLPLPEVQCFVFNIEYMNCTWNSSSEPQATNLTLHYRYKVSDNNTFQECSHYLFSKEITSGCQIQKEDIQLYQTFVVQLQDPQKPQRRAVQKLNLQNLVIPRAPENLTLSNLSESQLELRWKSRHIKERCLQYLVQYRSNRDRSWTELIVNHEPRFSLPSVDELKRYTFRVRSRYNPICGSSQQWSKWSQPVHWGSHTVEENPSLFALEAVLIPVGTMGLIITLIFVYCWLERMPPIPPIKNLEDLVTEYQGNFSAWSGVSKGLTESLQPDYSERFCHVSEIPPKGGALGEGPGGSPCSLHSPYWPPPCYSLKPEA
Briefly: cell-based or functional assay.

Assay [4] has as its target T4, human IL-2Rβ (human, UniProt P14784 27-240, limits assumed).
T4 construct: also called hIL-2Rβ; IL-2 receptor beta
T4 sequence (looked up): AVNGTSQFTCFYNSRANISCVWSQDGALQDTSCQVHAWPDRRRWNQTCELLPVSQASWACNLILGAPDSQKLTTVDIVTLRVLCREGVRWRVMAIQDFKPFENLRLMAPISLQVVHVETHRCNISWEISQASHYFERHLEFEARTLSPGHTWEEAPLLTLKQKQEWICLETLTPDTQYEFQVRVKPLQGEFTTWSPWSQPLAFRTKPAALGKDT
In words: SPR, fusion captured. The essentials: as §1

Where only a bound is given, the exact number is not on record here.

T1 sequence (Q13261 31-205 limits assumed): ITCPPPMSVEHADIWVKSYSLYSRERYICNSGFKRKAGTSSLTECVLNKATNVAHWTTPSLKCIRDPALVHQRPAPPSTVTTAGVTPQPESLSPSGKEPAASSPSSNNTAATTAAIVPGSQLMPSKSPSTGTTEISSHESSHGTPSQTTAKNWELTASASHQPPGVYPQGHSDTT

B1: xmPD-1-hIL15 V49R/Y26K/E64Q/D30N (other)
heavy 1: HHHHHHHHGGGGSGSGGEVQLVESGGGLVKPGGSLELSCAASGFTFSSYWMSWVRQAPEKGLEWVAAISPSGGSTYYADSVKGRFTISRDNAKNTLFLQMTSLRSEDTAMYYCAKESWGAYYDLWGQGTTVTVSSASTKGPSVFPLAPCSRSTSESTAALGCLVKDYFPEPVTVSWNSGALTSGVHTFPAVLQSSGLYSLSSVVTVPSSNFGTQTYTCNVDHKPSNTKVDKTVERKCRVRCPRCPAPPVAGPSVFLFPPKPKDTLMISRTPEVTCVVVAVSHEDPEVQFNWYVDGVEVHNAKTKPREEQFNSTFRVVSVLTVVHQDWLNGKEYKCKVSNKGLPSSIEKTISKTKGQPREPQVYTLPPSREEMTKNQVSLTCLVKGFYPSDIAVEWESNGQPENNYKTTPPMLDSDGSFFLYSRLTVDKSRWQQGNVFSCSVMHEALHNHYTQKSLSLSPGK
heavy 2: EVQLVESGGGLVKPGGSLELSCAASGFTFSSYWMSWVRQAPEKGLEWVAAISPSGGSTYYADSVKGRFTISRDNAKNTLFLQMTSLRSEDTAMYYCAKESWGAYYDLWGQGTTVTVSSASTKGPSVFPLAPCSRSTSESTAALGCLVKDYFPEPVTVSWNSGALTSGVHTFPAVLQSSGLYSLSSVVTVPSSNFGTQTYTCNVDHKPSNTKVDKTVERKCEVECPECPAPPVAGPSVFLFPPKPKDTLMISRTPEVTCVVVAVSHEDPEVQFNWYVDGVEVHNAKTKPREEQFNSTFRVVSVLTVVHQDWLNGKEYKCKVSNKGLPSSIEKTISKTKGQPREPQVYTLPPSREEMTKNQVSLTCEVKGFYPSDIAVEWESNGQPENNYKTTPPMLDSDGSFFLYSKLTVDKSRWQQGNVFSCSVMHEALHNHYTQKSLSLSPGSGGGGGTSATATPGANWVNVISDLKKIEDLIQSMHIDATLKTESNVHPSCKVTAMKCFLLELQRISLESGDASIHDTVQNLIILANNSLSSNGNVTESGCKECEELEEKNIKEFLQSFVHIVQMFINT
light: DIVMTQSPSSLSVSAGDKVTMSCRASQGISSWLAWYQQKPWQPPKLLIYKASTLESGVPDRFTGSGSGTDFTLTISSVQAEDLAVYYCQQSYSTPWTFGGGTKLEIKGTVAAPSVFIFPPSDEQLKSGTASVVCLLNNFYPREAKVQWKVDNALQSGNSQESVTEQDSKDSTYSLSSTLTLSKADYEKHKVYACEVTHQGLSSPVTKSFNRGEC
notes: not restated for this mutant; also called xmPD1 -V49R/Y26K/E64Q/D30N
For the molecule B1, the binding result in assay [1] is on record as “no binding (tested: 3000 nM)”. Further, in assay [2], the “Fold change = EC50 (PD-1(low))/EC50 (PD-1+)” value amounted to 382 fold and the “pSTAT5 EC50 on PD-1+ 32D reporter cells” value turned out to be 0.0561 nM. Also, the “pSTAT5 EC50 on PD-1(low) 32D reporter cells” value in assay [3] was determined as 21.4 nM. The same molecule had a Kd in assay [4] of over 1500 nM.
